From patent US20200190193A1 (INHIBRX, published 2020)

Target: human PD-1 (programmed cell death protein-1) (human, UniProt Q15116 25-288)
Assay: flow cytometry on enriched, anti-CD3-activated human T cells; sdAb-Fc titrated 167 nM to 0.00847 nM, anti-human IgG Alexa Fluor 647 detection
Protocol: For enrichment and activation of human T cells, Peripheral blood mononuclear cells (PBMCs) were isolated from human donor blood using density gradient centrifugation. Blood samples were diluted with PBS/2% FBS (1:2) and 30 mL of diluted blood was layered onto 15 mL of Lymphoprep density gradient medium. After centrifugation, the PBMC layer at the interphase of plasma and Lymphoprep was removed and remaining red blood cells were lysed using red blood cell lysis buffer for 5 minutes at room temperature. Non-T cell populations were labeled with biotinylated anti-lineage marker antibodies against CD14, CD16, CD19, CD20, CD36, CD56, CD123, TCR γ/δ (20 minutes, room temperature) and depleted using magnetic streptavidin particles. The unbound cell supernatant containing the T cell fraction was retained. Enriched human T cells were activated for 3 days by plating them at a density of about 2×10⁶ cells per mL media in tissue culture plates coated with 1 μg/mL mouse anti-human CD3 (OKT3). Activated T cells were washed once in PBS before further use in binding assays.

Chain of human PD-1 (programmed cell death protein-1) (Q15116 25-288 limits assumed): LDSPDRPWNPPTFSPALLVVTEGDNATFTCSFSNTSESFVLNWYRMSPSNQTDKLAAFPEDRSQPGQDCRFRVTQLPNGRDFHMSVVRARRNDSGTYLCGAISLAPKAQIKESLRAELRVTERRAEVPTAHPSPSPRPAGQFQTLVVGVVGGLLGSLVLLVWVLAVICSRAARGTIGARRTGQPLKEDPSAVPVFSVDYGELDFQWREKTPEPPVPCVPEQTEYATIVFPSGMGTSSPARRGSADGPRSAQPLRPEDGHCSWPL

B1: hz18H10v7 PD-1 sdAb-Fc fusion protein (humanized variant of 18H10) (Fc fusion)
chain: EVQLVESGGGEVQPGGSLRLSCAASGSITGANTMGWYRQAPGKQRDLVALIGNYVTHYAESVKGRFTISRDNAKNTVYLQMSSLRAEDTAVYYCYLYTDNLGTSWGQGTLVTVKP
notes: also called humanized 18H10 (hzv7); hzv7; not shown: hinge/linker and Fc of the sdAb-Fc fusion are not specified for the humanized variants
  binding result: binds
